The data set concerns the molecule itself. Nature of the data set: SEC.

This note sets out measurements from article PMC8906540 (RNA, 2022).

The term stoichiometry N denotes the number of molecules, sites or subunits per partner or assembly.

B1: YloC protein of Bacillus subtilis, purified, 8×His-Sumo tag removed (enzyme, UniProt O34441 1-291, looked up)
chain: MIRSMTGFGSASKTQDDLSVSVELKSVNYRFKEVNARLPRPLLYFEDKLKQTILQHIQRGRIELFVSVDSDMLVEKRLEIDWPLLDEFVAAARDMKKRYQLSAEPDVMDFFKLDHVVQVHEEQTQNDKLEALIIDAAEEAVKGLCEMREKEGLLLAKDCLMHIDQLEELVRETELLAADVVSRYRERLYARIKEWTEDVLDESRLVTECAIFADRSDITEEITRLKSHFAQFRDILASGGAVGRKLDFLVQELNREANTIGSKANDHQITKLVVEMKSSIEKIKEQVQNIE
In the case of B1, the “stoichiometry N” value was ~6.
